{"source": "patent US7208572B2", "about": "“Leptin-related peptides” (Albany Medical College, priority 1998, dated 2007)", "molecules": {"B1": {"name": "mouse leptin: recombinant mouse leptin used as positive control in binding and SEAP assays (protein, listed as Mus musculus)", "chain": "MCWRPLCRFLWLWSYLSYVQAVPIQKVQDDTKTLIKTIVTRINDISHTQSVSAKQRVTGLDFIPGLHPILSLSKMDQTLAVYQQVLTSLPSQNVLQIANDLENLRDLLHLLAFSKSCSLPQTSGLQKPESLDGVLEASLYSTEVVALSRLQGSLQDILQQLDVSPEC"}}, "key": {"[1]": {"target": "T1, OB-Rb (Mus musculus, UniProt P48356)", "T1 construct": "full-length leptin receptor (OB-Rb), the receptor isoform predominantly expressed in the hypothalamus; expressed in transfected cells; host or cells: GT1-7", "T1 sequence (P48356 22-1162)": "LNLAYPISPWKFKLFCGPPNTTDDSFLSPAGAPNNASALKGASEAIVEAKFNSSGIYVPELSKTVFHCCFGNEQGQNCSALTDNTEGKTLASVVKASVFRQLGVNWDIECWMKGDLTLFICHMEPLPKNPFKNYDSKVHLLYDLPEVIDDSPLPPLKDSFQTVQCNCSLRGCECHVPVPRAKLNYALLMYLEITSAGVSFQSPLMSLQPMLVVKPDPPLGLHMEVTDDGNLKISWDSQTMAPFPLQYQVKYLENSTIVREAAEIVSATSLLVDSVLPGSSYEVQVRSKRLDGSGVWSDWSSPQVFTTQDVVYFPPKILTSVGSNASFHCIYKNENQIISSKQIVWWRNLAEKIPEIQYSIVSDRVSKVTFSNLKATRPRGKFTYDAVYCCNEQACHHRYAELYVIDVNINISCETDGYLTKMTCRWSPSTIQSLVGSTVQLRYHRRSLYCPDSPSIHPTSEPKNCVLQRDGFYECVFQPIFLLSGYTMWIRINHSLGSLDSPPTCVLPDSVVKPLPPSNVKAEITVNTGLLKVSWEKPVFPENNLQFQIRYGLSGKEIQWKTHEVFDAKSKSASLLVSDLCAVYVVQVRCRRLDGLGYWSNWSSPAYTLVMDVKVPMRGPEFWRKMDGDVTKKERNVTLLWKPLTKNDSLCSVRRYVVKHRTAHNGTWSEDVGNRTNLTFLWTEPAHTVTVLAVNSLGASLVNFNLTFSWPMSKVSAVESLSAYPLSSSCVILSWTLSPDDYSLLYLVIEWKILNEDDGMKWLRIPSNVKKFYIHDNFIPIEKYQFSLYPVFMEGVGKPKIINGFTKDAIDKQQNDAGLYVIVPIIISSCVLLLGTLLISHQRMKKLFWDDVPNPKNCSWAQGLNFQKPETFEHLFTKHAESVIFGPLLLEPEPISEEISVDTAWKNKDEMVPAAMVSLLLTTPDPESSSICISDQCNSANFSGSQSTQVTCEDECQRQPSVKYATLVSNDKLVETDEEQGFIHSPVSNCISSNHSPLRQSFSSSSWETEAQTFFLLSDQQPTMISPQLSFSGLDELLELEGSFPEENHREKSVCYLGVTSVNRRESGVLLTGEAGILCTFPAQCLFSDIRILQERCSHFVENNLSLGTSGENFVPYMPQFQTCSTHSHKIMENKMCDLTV", "assay": "SEAP reporter gene signal transduction assay in GT1–7 cells cotransfected with HRRE-SEAP and OB-Rb", "assay_type": "cell-based", "conditions": "6 nM mouse leptin, 24 h", "text": "(§1) Initial experiments to determine the mechanism of action of LEP(116–130) utilized two highly sensitive in vitro bioassays routinely used to assess leptin binding and receptor activation (see e.g., White, et al., 1997. Proc. Natl. Acad. Sci. U.S.A. 94: 10657–10662). An alkaline phosphatase (“AP”)-leptin (“OB”) fusion protein (“AP-OB”) was used to measure inhibition of leptin binding in the absence or presence of recombinant mouse leptin (positive control) or peptide, by COS-7 cells transfected with the long (signaling) form of the mouse OB receptor (“OB-RL”). Signal transduction assays were done in GT1–7 cells cotransfected with AP reporter and OB-RL constructs. Secreted alkaline phosphatase (“SEAP”) activity in response to stimulation with mouse leptin or peptide was measured by chemiluminescence.\nTwo days after transfection, the cells were stimulated with mouse leptin or leptin-related synthetic peptides for 24 hours. Growth media were harvested and SEAP activity was determined by chemiluminescence as described for AP-OB binding studies.\nCOS-7 and GT1–7 cells were cultured in DMEM supplemented with 10% fetal bovine serum, and transfected by the lipofectamine method. […] Supernatants were collected and SEAP reporter activities were measured by chemiluminescence using the GreatEscApe alkaline phosphatase detection kit as described by the manufacturer (CLONTECH). […]"}, "[2]": {"target": "T2, OB-Ra (Mus musculus, UniProt P48356)", "T2 construct": "expressed in transfected cells; host or cells: COS-7", "T2 sequence (P48356 22-894 isoform P48356-2 limits assumed)": "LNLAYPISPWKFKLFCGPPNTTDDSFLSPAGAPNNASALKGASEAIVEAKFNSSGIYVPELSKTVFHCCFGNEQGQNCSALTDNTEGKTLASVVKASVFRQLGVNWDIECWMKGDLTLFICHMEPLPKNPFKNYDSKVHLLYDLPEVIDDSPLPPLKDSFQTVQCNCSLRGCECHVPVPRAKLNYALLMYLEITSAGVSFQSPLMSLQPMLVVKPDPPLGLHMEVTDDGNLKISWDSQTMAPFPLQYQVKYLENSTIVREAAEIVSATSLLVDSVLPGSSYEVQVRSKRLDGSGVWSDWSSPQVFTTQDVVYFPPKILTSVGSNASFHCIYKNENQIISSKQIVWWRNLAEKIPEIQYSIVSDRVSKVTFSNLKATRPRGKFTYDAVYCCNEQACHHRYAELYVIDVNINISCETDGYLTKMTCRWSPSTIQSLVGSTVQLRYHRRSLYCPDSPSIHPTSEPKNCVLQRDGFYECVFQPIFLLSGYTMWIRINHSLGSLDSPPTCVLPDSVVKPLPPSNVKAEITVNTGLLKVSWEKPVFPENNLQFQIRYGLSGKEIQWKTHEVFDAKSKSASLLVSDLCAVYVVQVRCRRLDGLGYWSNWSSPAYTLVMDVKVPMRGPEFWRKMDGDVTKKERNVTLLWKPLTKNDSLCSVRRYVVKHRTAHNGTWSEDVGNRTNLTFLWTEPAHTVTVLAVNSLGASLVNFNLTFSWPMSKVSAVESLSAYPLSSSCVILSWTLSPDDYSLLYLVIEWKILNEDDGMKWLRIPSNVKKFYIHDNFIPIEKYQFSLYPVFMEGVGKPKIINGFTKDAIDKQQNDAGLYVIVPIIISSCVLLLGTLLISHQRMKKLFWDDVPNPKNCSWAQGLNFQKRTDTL", "assay": "Inhibition of AP-OB fusion protein binding by COS-7 cells transfected with OB receptor", "conditions": "30 nM unlabelled mouse leptin", "text": "as §1\nTwo days after transfection, COS-7 cells were incubated with 1 nm human AP-OB fusion protein and bound AP activity was determined by chemiluminescence using the Great EscApe alkaline phosphatase detection kit as described by the manufacturer (CLON-TECH).\nCOS-7 cells were transfected with expression vector for OB-Ra. Two days after transfection, the cells were incubated with 1 nM human AB-OB fusion protein in the absence or presence of 30 nM mouse leptin, 300 μM LEP(116–130) or LEP(146–160). Bound AP activity was determined as has been described. See., e.g., Kamohara et al., 1997 Nature 389: 374–377."}}, "data": [{"molecule": "B1", "values": [{"measurement": "Increase in SEAP activity", "setting": "[1]", "result": 11, "unit": "fold"}, {"measurement": "Competition of bound AP-OB", "setting": "[2]", "result": "efficiently competed"}]}]}
